One molecule from patent CN106928350A (TIANJIN INST IND BIOTECHNOLOGY CAS; SUZHOU GENEWIZ …, dated 2017) can be followed below.

Experiment [1] deals with T1, HA of A/PuertoRico/8/1934 H1N1 (Influenza A virus A/PuertoRico/8/1934 …, UniProt P03452 18-565).
T1 construct: whole, on cells; also called PR8
Put plainly: immunofluorescence on virus-infected MDCK cells.

Experiment [2] has as its target T2, HA of H4 (A/duck/Czech/1956)/PR8 H4N1 (PR8-RS) (Influenza A virus A/duck/Czech/1956 (H4), UniProt P19696 17-564).
T2 construct: whole, on cells
The experiment in a line: immunofluorescence on virus-infected MDCK cells, antibody 40μg/mL.

B1: AF4H1K1 (antibody, V domains shown)
VH: QVQLVESGGGVVQPGTSLRLSCEASGFTSSAYAMHWVRQAPGKGLEWVAVITFDGGYQYYADSVKGRFTISRDISRNTLHLHMNSLRAEDTAVYYCARDPLTKLLPFDWVSGGYFDYWGQGTLVTVSS
VL: not shown
notes: also called AF4H1K1 IgG; AF4H1K1IgG
As to B1, the binding result in experiment [1] is given as “no binding (tested: 40μg/mL)”; in experiment [2] it was “binds”.
